In the supplement of paper PMC9170038:

Key:
Conditions in all cases: FMN input: 0 or 200 uM; Eterna round: R93 (includes R88 designs)
MS2 coat protein [1] = experiment: apparent KD of MS2 coat protein, switch OFF state (with FMN for OFF switches, without FMN for ON switches); designed switch direction (-1 OFF switch, 1 ON switch): 1; higher = weaker reporter binding
In short: (§1)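 Apparent KD per design is the median of normalised cluster binding-curve fits. Designed RNA switches transcribed on-chip from Illumina sequencing clusters were titrated with SNAP-549-labelled MS2 coat protein in twofold steps from 0.7 or 1.5 nM to 3 µM, with 0.8–1.5 h down to 10–20 min per step. Buffer: 100 mM Tris-HCl pH 7.5, 80 mM KCl, 4 mM MgCl2, without or with constant ligand.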

MS2 coat protein [2] = experiment: apparent KD of MS2 coat protein, switch ON state; designed switch direction (-1 OFF switch, 1 ON switch): 1; higher = weaker reporter binding
In short: as §1

MS2 coat protein [3] = experiment: apparent KD of MS2 coat protein, switch ON state; designed switch direction (-1 OFF switch, 1 ON switch): -1; higher = weaker reporter binding
In short: as §1

MS2 coat protein [4] = experiment: apparent KD of MS2 coat protein, switch OFF state (with FMN for OFF switches, without FMN for ON switches); designed switch direction (-1 OFF switch, 1 ON switch): -1; higher = weaker reporter binding
In short: as §1

| Sequence | apparent KD of MS2 coat protein (MS2 coat protein [1]) [µM] | apparent KD of MS2 coat protein (MS2 coat protein [2]) [µM] | apparent KD of MS2 coat protein (MS2 coat protein [3]) [µM] | apparent KD of MS2 coat protein (MS2 coat protein [4]) [µM] |
| --- | --- | --- | --- | --- |
| AAAAAAAAAACUCAGGAUAUAGAUCGUUGAACAUGAGGAUCACCCAUGUAGUGAAAAGCGAAAAACUAGAAGGGAGGAAAAAAAAA [SameState2-02] | 0.0287 | 0.0133 |  |  |
| AAAAAAAAAGUAGAGGAUAUCCGAGUGGUAACAUGAGGAUCACCCAUGUGAAGAAAGGAACAUGAGGAGAAGGCUACAAAAAAAAA [Normal (18/17)] | 0.0304 | 0.0119 |  |  |
| AAAAAAAAAGUAUAGGAUAUCCGAGUGGUAACAUGAGGAUCACCCAUGUGAAGAAAGGAAGAUGAGGAGAAGGAUACAAAAAAAAA [Mod of Mat of Nando] | 0.0653 | 0.0279 |  |  |
| AAAAAACAUGAGGAUCACCCAUGUAAAAAAAACACAGGAUAUCCAAAAAAAAAAAAAAAAGGAGAAGGGUGAAAAA [Nob - Jieux - Same State 1] | 0.0483 | 0.022 |  |  |
| AAAAAACAUGAGGAUCACCCAUGUAAAAAAAACACAGGAUAUCCCUAAAAAAAAAAAAAAGGAGAAGGGUGAAAAA [Nob's Hobby 2 - Jieux - Same State 1] | 0.0298 | 0.0213 |  |  |
| AAAAAACAUGAGGAUCACCCAUGUAAUACAACAUCAGGAUAUUGGUUUUACUAUGUAUUACAAGAAGGGAUGAAAA [Same State 1.3b (Same State 1 - Omei 2 )] | 0.0924 | 0.181 |  |  |
| AAAAAACAUGAGGAUCACCCAUGUAUAAAAUGGGAAGGAUAUACUAAGACGAAAGUCAUAGUAGAAGGUCCAAAAA [76%, Meechl, 12] | 0.193 | 0.0445 |  |  |
| AAAAAACAUGAGGAUCACCCAUGUAUGAUAACAUCAGGAUAUUGGCUUGACUAUGUCUUACAAGAAGGGAUGAAAA [Same State 1.3e (Same State 1 - Omei 2 )] | 0.0486 | 0.0283 |  |  |
| GGUUGGCGAGGAUAUACAUGAGGAUCACCCAUGUGAGAGAAAAAAGAGAGAAAGAAAAGUAGAAGGCGCUGACG [salish99-ex3-52] |  |  | 0.0479 | 0.0978 |
| GGUUGGCGAGGAUAUACAUGAGGAUCACCCAUGUGAGAGAAAAAAGUGAGAAAGAAAAGUAGAAGGCGCUGACA [salish99-ex3-03] |  |  | 0.0588 | 0.283 |
| GGUUGGCGAGGAUAUACAUGAGGAUCACCCAUGUGAGAGAAAAAAGUGAGACAGAAAAGUAGAAGGCGCUGACG [salish99-ex3-24] |  |  | 0.0658 | 0.00745 |
| GGUUGUGGAGGAUAUACAUGAGGAUCACCCAUGUGAGAGAAAAAAGUGAGAAAGAAAAGUAGAAGGUCAUGACG [salish99-ex3-65] |  |  | 0.0338 | 0.0468 |
| GGUUUGGUAGGAUAUACAUGAGGAUCACCCAUGUGAGAGAAAAAAGUGAGAAAGAAAAGUAGAAGGACCGGACG [salish99-ex3-123] |  |  | 0.0399 | 0.102 |
| GUCAGCUGAGGAUAUACAGGUGAGGCCGCAGGACAAAAUAUACAUGAGGAUCACCCAUGUAGAAGGCGGAAGAC [Vegea] |  |  | 0.0338 | 0.0445 |
| GUCAGCUGAGGAUAUACAGGUGAUGCCGCAGAACAAAAUAUACAUGAGGAUCACCCAUGUAGAAGGCGGAAGAC [Terian] |  |  | 0.0494 | 0.0441 |
| GUGUACAGAGGAUAUACAUGGGCAUGAAAACAUGCAUCCUCACAUGAGGAUCACCCAUGUAGAAGGCUGUACAC [Ex2: 706] |  |  | 0.0245 | 0.0257 |
| UAAAAGCGAGGAUAUACAUGAGGAUCACCCAUGUGAAAGAAAAAUAAAAAAAAAAAAAGUAGAAGGCGCUAAAA [Ex 3 #2] |  |  | 0.0589 | 0.0657 |
| UAAAAGUGAGGAUAUUCGGAUAGGAAAACGAAAACCUAUCCGAAGAAGGCACAUGAGGAUCACCCAUGUAAAAU [Mat - Exaclusion 4 - Eli mod - D37] |  |  | 0.0331 | 0.048 |
| UAAAGACAUGAGGAUCACCCAUGUGAGGAUAUAGGUGUAUGCAAAAAAAAGCAUACACCUAGAAGGCACAGAAA [JR_Exc001_Sub303] |  |  | 0.044 | 0.0763 |
| UAAAGACAUGAGGAUCACCCAUGUGAGGAUAUCGGAGGUGACGGAGCAUCGAGUUCGGCGAGAAGGCGCAGGAA [JR_Exc001_Sub409] |  |  | 0.0672 | 0.0534 |
| UAAAGACAUGAGGAUCACCCAUGUGAGGAUAUGUGAGACAACAGAACAUCAAGUACAAGCAGAAGGCACAGAAA [JR_Exc001_Sub019] |  |  | 0.0518 | 0.0627 |

| Sequence | apparent KD of MS2 coat protein (MS2 coat protein [1]) [µM] | apparent KD of MS2 coat protein (MS2 coat protein [2]) [µM] | apparent KD of MS2 coat protein (MS2 coat protein [3]) [µM] | apparent KD of MS2 coat protein (MS2 coat protein [4]) [µM] |
| --- | --- | --- | --- | --- |
| UAAAGGAUAGGAUAUACAUGAGGAUCACCCAUGUGAAUAAAUAAAAAAAUAAAAUAAAGUAGAAGGAUCAAUAA [LROPPY Exclusion 3 - v04_deltaG=3.9 break up As] |  |  | 0.0322 | 0.034 |
| UAAAGGAUAGGAUAUACAUGAGGAUCACCCAUGUGAAUAAAUAAGAAAAUAAAAGAAAGUAGAAGGAUCAAGAA [LROPPY Exclusion 3 - v04_deltaG=3.9 break up As mixed] |  |  | 0.0252 | 0.0296 |
| UAAAGGCGAGGAUAUACAUGAGGAUCACCCAUGUGAAUAAAUAAGAAAAUAAAAGAAAGUAGAAGGCGCAAGAA [LROPPY Exclusion 3 - v03_deltaG=1.9 break up As mixed] |  |  | 0.0441 | 0.0449 |
| UAAAGGCGAGGAUAUACAUGAGGAUCACCCAUGUGAAUAAAUAAUAAAAUAAAAUAAAGUAGAAGGCGCAAUAA [LROPPY Exclusion 3 - v03_deltaG=1.9 break up As] |  |  | 0.0539 | 0.0432 |
| UAACAGUCAGGAUAUGGACAAUACAAUACAAACAAAUAAAGCCAGAAGGGACAUGAGGAUCACCCAUGUAAACA [Simple] |  |  | 0.0416 | 0.023 |
| UAAGGACAUGAGGAUCACCCAUGUGAGGAUAUGCUCUACGAACGUUUAUUUAUGAGAAGCAGAAGGCACAUUUU [try 2] |  |  | 0.0504 | 0.127 |
| UAUAGACAUGAGGAUCACCCAUGUGAGGAUAUGAGUGACUACAGGACAUCACGUACAAUCAGAAGGCACAGAAA [JR_Exc001_Sub016] |  |  | 0.0479 | 0.0609 |
| UAUAUACAUGAGGAUCACCCAUGUCAGGAUAUGCGCCCAGAAUAUACAUAUGAUACAAGCAGAAGGGACACUAA [JR_Exc001_Sub205] |  |  | 0.0553 | 0.0493 |
| UCCACACAUGAGGAUCACCCAUGUGAGGAUAUCUAGAAAACCUCAUGUAAAAAAAUCUAGAGAAGGCACAUGAA [Design 92: Pseudoknot B] |  |  | 0.024 | 0.025 |
| UCCAGACAUGAGGAUCACCCAUGUCAGGAUAUCUAGAAAACCUCAUGUAAAAAAAACUAGAGAAGGGAUAUGGA [Design 95: Pseudoknot E] |  |  | 0.0152 | 0.0148 |
| UCCGGACAUGAGGAUCACCCAUGUGAGGAUAUAUAAAGUGGGACUAGAAACAGUCCCAAUAGAAGGCACAUGAC [Esarbiorar] |  |  | 0.022 | 0.0176 |
| UCCGGACAUGAGGAUCACCCAUGUGAGGAUAUAUAAAGUGGGACUGGAAACAGGCCCAAUAGAAGGCACAUGAC [Atatesin] |  |  | 0.0226 | 0.0219 |
| UCCUCACAUGAGGAUCACCCAUGUUAGGAUAUGCCCGGCGGGUUCUGACCUGCCUAAAGCAGAAGGAACGUGCG [Cexequge] |  |  | 0.0166 | 0.0701 |
| UGCAUGUAAGGAUAUGCAACCGGCGCUCAUUAACCGGUCAAGCAGAAGGUACAUGAGGAUCACCCAUGUGUCCG [Esteleus] |  |  | 0.0172 | 0.0522 |
| UGGGAGUCAGGAUAUACGAACAUGUCGCCAGAUGUCAAGGUACAUGAGGAUCACCCAUGUAGAAGGGACGAGAA [salish99-Ex2-28] |  |  | 0.0531 | 0.0341 |
| UGUUGGCGAGGAUAUACAUGAGGAUCACCCAUGUGAGAGAAAAAAGUGAGAAAGAAAAGUAGAAGGCGCUGACA [salish99-ex3-07] |  |  | 0.0462 | 0.282 |
| UUAACACAUGAGGAUCACCCAUGUUAGGAUAUUGUGGUAGGAACAACUGGGAAACGCACAAGAAGGGACACACA [EX1 Malc#18 Mod 18 - Jieux - Exclusion 1] |  |  | 0.0292 | 0.0266 |
| UUAGAACAUGAGGAUCACCCAUGUGAGGAUAUGCAAUACUAAAAAAAAGAUAAUUAUAGCAGAAGGCACGUAGU [JR_EXc001_Sub805] |  |  | 0.0351 | 0.0414 |
| UUCAAGUGAGGAUAUACGAAUAGUAAGUAAGUAUAACAGACGUAGAAGGCACAUGAGGAUCACCCAUGUAAAUA [JR_Exc004_Sub304] |  |  | 0.0258 | 0.0225 |
| UUCGCACAUGAGGAUCACCCAUGUCAGGAUAUCGUGGCGGGAAAAACCGGGAAACGCACGAGAAGGGACACACA [EX1 Malc#18 Mod 15 - Jieux - Exclusion 1] |  |  | 0.0473 | 0.0515 |
| UUUAUGUGAGGAUAUGUACAGAAAAAAAAGGGUGUAACUGUACAGAAGGCACAUGAGGAUCACCCAUGUGAAUA [EX4 381: S S Pseudoknot 6] |  |  | 0.113 | 0.216 |
